The data set concerns MS2 coat protein. In words: apparent KD of MS2 coat protein; higher = weaker reporter binding. Particulars: Eterna round: R107. The procedure: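 RNA-MaP round R107: designed RNA switches with theophylline, tryptophan, arginine or FMN aptamers are transcribed on-chip within common flanks. They are titrated with SNAP-549-labelled MS2 coat protein in RNA-MaP buffer (100 mM Tris pH 7.5, 80 mM KCl, 4 mM MgCl2), without ligand or with the indicated ligand. Median apparent KD per design.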

Where [1] appears, read: input ligand: theophylline 20 uM.
Where [2] appears, read: input ligand: theophylline 2 mM.
Where [3] appears, read: input ligand: tryptophan 2.4 mM.

On to “AACACAUGAGGAUCACCCAUGUUCUCGUGUCGAGGACCGGUACGGCCGCCACUCGGUUCUCGCGAGGAUGGUCAAAGACUAUCCA [Omei Trp A SS B v7]”, for which the “apparent KD of MS2 coat protein” value amounted to 40.3 nM (input ligand: arginine 13.2 mM), 57.4 nM under setting [1] and 50.4 nM under setting [2].
“AACACGGUGAUGGUAGCCGGACGCUAGGUACGAGGACCGGUACGGCCGCCACUCGAAGUCCUACGACAUGAGGAUCACCCAUGUA [Same State Trp A GF14]”: the “apparent KD of MS2 coat protein” value (input ligand: arginine 13.2 mM) is 46.2 nM; the “apparent KD of MS2 coat protein” value (input ligand: none) came to 64.3 nM; the “apparent KD of MS2 coat protein” value under setting [1] worked out at 89.2 nM; the “apparent KD of MS2 coat protein” value under setting [2] is 81.7 nM; the “apparent KD of MS2 coat protein” value under setting [3] stood at 47.7 nM.
Turning to “AACAUGAGGAUCACCCAUGUACAUUUCGAUCGAGGACCGGUACGGCCGCCACUCGAAAACAUGAGGAUCACCCAUGUUCAACAGG [Tryp A SS t4]”, the “apparent KD of MS2 coat protein” value by setting is: (input ligand: arginine 13.2 mM) 65 nM; under setting [1], 336 nM; under setting [2], 390 nM.
As to “AACGAUUAAUCGGCCGCCACUCACAUGAGGAUCACCCAUGUUGUUCUUCCAGGUGGUUCUGUUCCGAGGACCGGGAUUCCGUCCU [theeternabot_exclusion_MS2_Trp_B_42]”, the “apparent KD of MS2 coat protein” value (input ligand: arginine 13.2 mM) stood at 41.8 nM, the “apparent KD of MS2 coat protein” value under setting [1] is 70.6 nM and the “apparent KD of MS2 coat protein” value under setting [2] was 70.7 nM.
As for “AACGUAUACAGAAGGAGCGUGAAUUAUAUUACUCAUUGUUAUACAUGAGGAUCACCCAUGUCACAGGUAGGUCGCUGUAUUCGUA [JR_ExcArginiB_Sub018]”, the “apparent KD of MS2 coat protein” value was determined as 76.9 nM (input ligand: arginine 13.2 mM); 131 nM (input ligand: none); 126 nM under setting [1]; 162 nM under setting [2]; 110 nM under setting [3].
For the sequence “AAGGCUACGACCGAUACCAGUAGACGGCAUUCGUAGGAGAACAUGAGGAUCACCCAUGUCUACCCUUGGCAGCGGAAAAUACACU [theeternabot_exclusion_MS2_Theo_B_16]”, the “apparent KD of MS2 coat protein” value reads like this: (input ligand: arginine 13.2 mM) 11.1 nM; under setting [1], 17.4 nM; under setting [3], 12.3 nM.
“AAGGGACAUGAGGAUCACCCAUGUACCGAAGGAGCGGCAGAGAUGCCAGGUAGGUCGCGGUACUUGCCGGGUCAUUCAUGCUAAA [Isxeon]”: the “apparent KD of MS2 coat protein” value runs as follows: (input ligand: arginine 13.2 mM) 9.48 nM; (input ligand: none) 12 nM; under setting [1], 14.3 nM; under setting [2], 11.6 nM; under setting [3], 13.5 nM.
For the sequence “AAGGGUGGGUCUCUAAUCCGUUUGACGGAUACCAGCGAGAGAUAUCGCCCUUGGCAGCCGACGACAUGAGGAUCACCCAUGUAAA [#05 Exclusion-TheophyllineA]”, the “apparent KD of MS2 coat protein” value was 16.8 nM (input ligand: arginine 13.2 mM); 18.7 nM (input ligand: none); 22.5 nM under setting [1]; 34.8 nM under setting [2]; 15.8 nM under setting [3].
The like results for “AAGGUGAUCCCAGAUACCAGCUUAACAUGAGGAUCACCCAUGUAACGGACGAAAGUCCGGAGCCCUUGGCAGCUGGGUUGCCAAG [SSTheo B #14]” were, in that order, 102 nM, 266 nM, 305 nM, 141 nM and 90.9 nM.
Turning to “AAUAACAUGAGGAUCACCCAUGUAAAAGAUACCAGAGUGAUGAUCCUCCCUUGGCAGCUUAAAACGCUAUUGGAAACAAUAGCGA [Mat - Same State Theophlline A - Mod of Eli - D5]”, the “apparent KD of MS2 coat protein” value amounted to 48.8 nM (input ligand: arginine 13.2 mM), 179 nM under setting [1] and 74 nM under setting [3].
Taken in the same sequence, the figures for “AAUAACAUGAGGAUCACCCAUGUAAAAGAUACCAGAUGCAUGAUGAUCCCUUGGCAGCUUAAACGCGAUUGGAAACAAUCGCGAA [Mat - Same State Theophlline A - Mod of Eli - D11]” were 37.1 nM, 40 nM and 38.3 nM.
As to “AAUAACAUGAGGAUCACCCAUGUAACCGAAGGAGCGGCAAUAAAGCCAGGUAGGUCGCGGAAUAACAUGAGGAUCACCCAUGUAA [Exclusion Arginine A]”, the “apparent KD of MS2 coat protein” value reads like this: (input ligand: arginine 13.2 mM) 55.5 nM; (input ligand: none) 138 nM; under setting [1], 112 nM; under setting [2], 125 nM; under setting [3], 94.7 nM.
The like results for “AAUAAUAAGGCGGCCGCCACUAAACAUGAGGAUCACCCAUGUCUCGAGGGCUUGCGUUUGGGAAGUAGGACCGGGCCAAUAAUAA [Exclusion - Tryptophan B (Freestyle 6)]” were, in that order, 12.6 nM, 17.9 nM, 18.8 nM, 20.4 nM and 16.4 nM.
For “AAUAAUAUCCUCAUGUGAGUCGUACCAUAACGAGGACCGGUACGGCCGCCACUCGAACAUGAGGAUCACCCAUGUAGGUAUGAUA [M'-T'-T-MS2-T'' - Design 7]”, the “apparent KD of MS2 coat protein” value worked out at 50.6 nM (input ligand: arginine 13.2 mM), 120 nM under setting [1] and 345 nM under setting [2].
Consider “AAUACAGUGUCGGCCGCCACUGAAACAUGACAUGAGACAUGAGGAUCACCCAUGUACAUAAUAAACAGGACCGGGACCCAUGUAU [Same State Tryptophan B]”, for which the “apparent KD of MS2 coat protein” value by setting is: (input ligand: arginine 13.2 mM) 28.9 nM; under setting [1], 42.4 nM; under setting [2], 42.5 nM.
With “AAUAGACAUGAGGAUCACCCAUGUAUGGAAGGAGCGGUGAAUAAACCAGGUAGGUCGCCAGUGUGAGGGUCAUCUAUGUAAUAAA [#18 Exclusion - Arginine A]”, the “apparent KD of MS2 coat protein” value is, setting by setting: (input ligand: arginine 13.2 mM) 37.6 nM; (input ligand: none) 49 nM; under setting [1], 63.3 nM; under setting [2], 62.1 nM; under setting [3], 46.9 nM.
As to “AAUAGUCCUCGACAUGAGGAUCACCCAUGUCGAGGACCGGUACGGCCGCCACUCGACAUGAGGAUCACCCAUGUUGAGUGAUAAA [prototype 1]”, the “apparent KD of MS2 coat protein” value came to 7.58 nM (input ligand: arginine 13.2 mM), 8.26 nM under setting [1] and 7.82 nM under setting [2].

Values taken from the supplement of paper PMC9170038.
